Source: US20140255304, “TDP-43 SPECIFIC BINDING MOLECULES” (BIOGEN IDEC INTERNALTIONAL NEUROSCIENCE GMBH, published 2014)

Target: TDP-43 full length (residues 1-414) (Homo sapiens, UniProt Q13148 SEQ:1-414)
Experiment: FP; at least 30-fold higher affinity than for U12 control; 40 mM HEPES, 0.5 M KCl, 0.4 M arginine, pH 7.4, 25 C
Settings: tags: N-terminal 6xHis-SUMO, expressed in E. coli BL21(DE3) Star; label: 5' TYE fluorophore
Description: Equilibrium binding affinities of TDP-43 constructs for RNA were determined using fluorescence polarization. 5′TYETM fluorophore labeled RNA substrates, specific RNA (TYETM-[…]) (SEQ ID NO: 312) and RNA control (TYETM-[…]) (SEQ ID NO: 313) (integrated DNA Technologies), were incubated at a concentration of 5 nM for 30 min at 25° C. with TDP-43 (final concentrations 0 to 20 μM) in incubation buffer as indicated. Fluorescence polarization was measured with the plate reader fluorometer Envision (PerkinElmer) at each concentration of TDP-43 in a 96 well plate format with an excitation at 645 nm and emission at 665. Kds were calculated using the quadratic equation for tight binding (Morrison equation) using Sigmaplot (Systat Software Inc.). […] Stoichiometries were calculated by measuring the intercept of two straight lines, one fit using data points of the partially bound state, and the other using data points of the fully bound state.
The recombinant full-length TDP-43 was monomeric by sedimentation analysis (FIG. 8C) in buffer containing 400 mM arginine.

Sequence of TDP-43 full length (residues 1-414) (Q13148 whole entry, the tested form may be a part): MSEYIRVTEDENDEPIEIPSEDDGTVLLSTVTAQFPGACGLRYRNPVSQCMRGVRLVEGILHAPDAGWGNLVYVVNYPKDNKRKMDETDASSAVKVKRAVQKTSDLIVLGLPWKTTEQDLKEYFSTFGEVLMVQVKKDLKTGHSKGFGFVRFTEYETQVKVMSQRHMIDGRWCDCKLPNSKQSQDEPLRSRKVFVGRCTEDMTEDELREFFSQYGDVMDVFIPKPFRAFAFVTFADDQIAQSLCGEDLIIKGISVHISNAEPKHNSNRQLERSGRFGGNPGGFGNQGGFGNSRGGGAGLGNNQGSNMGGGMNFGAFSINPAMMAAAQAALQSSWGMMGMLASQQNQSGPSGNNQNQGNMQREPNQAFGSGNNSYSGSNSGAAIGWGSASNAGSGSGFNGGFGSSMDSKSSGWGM

UGUGUGUGUGUG (ssRNA) [(UG)6 specific RNA]
binding signal: ≥ 30 fold
